This note sets out measurements from patent US20250223359A1 (published 2025).

In general, Kd refers to the constant that tells how readily two partners part at equilibrium.

The labels stand for the following.
B1: Human CD2 (recombinant extracellular domain, Avi-tagged) (receptor)
chain: KEITNALETWGALGQDINLDIPSFQMSDDIDDIKWEKTSDKKKIAQFRKEKETFKEKDTYKLFKNGTLKIKHLKTDDQDIYKVSIYDTKGKNVLEKIFDLKIQERVSKPKISWTCINTTLTCEVMNGTDPELNLYQDGKHLKLSQRVITHKWTTSLSAKFKCTAGNKVSKESSVEPVSCPEKGLD
modifications: site selectively biotinylated during expression (C-terminal Avi-Tag, BirA co-transfection)
notes: Produced in HEK293 cells; also called recombinant human CD2
B2: CD58 Full ECD (ligand)
chain: SQQIYGVVYGNVTFHVPSNVPLKEVLWKKQKDKVAELENSEFRAFSSFKNRVYLDTVSGSLTIYNLTSSDEDEYEMESPNITDTMKFFLYVLESLPSPTLTCALTNGSIEVQCMIPEHYNSHRGLIMYSWDCPMEQCKRNSTSIYFKMENDLPQKIQCTLSNPLFNTTSSIILTTCIPSSGHSRHRGGGGSHHHHHHHH

The assay “CD58 Full ECD” addresses B2. The assay is described as follows: ITC; 100 uM CD2 titrated into 10 uM CD58 variant in HBS. The procedure: (§1) To ensure the binding affinity remained uncompromised by the additional of the stabilizing disulfide variance, isothermal calorimetry (ITC) was performed on the resulting recombinant CD58 proteins to determine their apparent KD and binding stoicheometry (n) to recombinant human CD2.
(§2) Briefly, recombinant human CD2 and recombinant human CD58 variants were dialyzed into HEPES-buffered saline (HBS). CD2 was diluted to final concentration of 100 μM, CD58 variants were diluted to 10 μM. CD2 was titrated into 10 μM of CD58 variants via multiple injections and ΔH (kcal/mole) determined using a MicroCal VP-ITC isothermal titration calorimeter (Malvern). Titrations of CD2 into HBS were used as a reference and KD and n determined from the resulting data.
(In ITC the heat of successive injections is recorded.)

In assay [1] the target is B1. The assay is described as above. The protocol: as §1, §2
The target in assay [2] is T1, human CD19 (human, UniProt P15391 20-556).
T1 construct: whole, on cells; also called huCD19; hCD19
T1 sequence (looked up): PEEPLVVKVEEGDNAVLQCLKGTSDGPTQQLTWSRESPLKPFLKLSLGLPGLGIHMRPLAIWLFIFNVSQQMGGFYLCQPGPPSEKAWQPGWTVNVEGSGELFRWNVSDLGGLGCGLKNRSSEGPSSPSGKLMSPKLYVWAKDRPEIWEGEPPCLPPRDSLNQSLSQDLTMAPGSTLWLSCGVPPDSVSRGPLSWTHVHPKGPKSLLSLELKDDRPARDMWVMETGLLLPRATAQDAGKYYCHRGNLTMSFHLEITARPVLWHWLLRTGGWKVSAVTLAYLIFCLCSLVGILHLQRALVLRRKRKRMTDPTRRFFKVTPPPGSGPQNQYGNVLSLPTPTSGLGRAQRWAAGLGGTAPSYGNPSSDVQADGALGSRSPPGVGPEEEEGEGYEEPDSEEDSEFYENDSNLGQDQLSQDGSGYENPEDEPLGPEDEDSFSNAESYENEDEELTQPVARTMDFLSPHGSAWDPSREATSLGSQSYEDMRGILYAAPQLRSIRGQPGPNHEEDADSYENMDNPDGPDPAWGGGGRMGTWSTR
The assay is described as follows: flow cytometry on murine 300.19 cells overexpressing human CD19; serial dilutions; anti-human Fc Alexa-647 secondary. For orientation: A flow cytometer gives signals particle by particle.

For assay [3], the target named is T1, human CD19. The experiment in a line: flow cytometry on 300.19 cells overexpressing human CD19 (figure legend).

B1 came in with a dissociation constant (Kd) with CD58 Full ECD of 570 nM. Take B2: the “n (binding stoichiometry)” value in assay [1] is 0.92.

B3: CD58_IgV (ligand)
chain: SQQIYGVVYGNVTFHVPSNVPLKEVLWKKQKDKVAELENSEFRAFSSFKNRVYLDTVSGSLTIYNLTSSDEDEYEMESPNITDTMKFFLYVLESGGGGSHHHHHHHH
notes: also called CD58 domain 1; IgV WT
Take B3: in assay [1], the Kd was found to be 610 nM and the “n (binding stoichiometry)” value worked out at 0.96.

B4: CD58 IgV V54C_G88C (ligand)
chain: SQQIYGVVYGNVTFHVPSNVPLKECLWKKQKDKVAELENSEFRAFSSFKNRVYLDTVSCSLTIYNLTSSDEDEYEMESPNITDTMKFFLYVLESGGGGSHHHHHHHH
notes: Disulfide-stabilized variant
B4: in assay [1], the dissociation constant (Kd) amounted to 600 nM and the “n (binding stoichiometry)” value amounted to 0.83.

B5: CD58 IgV V45C_M105C (ligand)
chain: SQQIYGVVYGNVTFHCPSNVPLKEVLWKKQKDKVAELENSEFRAFSSFKNRVYLDTVSGSLTIYNLTSSDEDEYECESPNITDTMKFFLYVLESGGGGSHHHHHHHH
notes: Disulfide-stabilized variant
Regarding B5, in assay [1], the dissociation constant Kd turned out to be 880 nM and the “n (binding stoichiometry)” value is 0.97.

B6: CD58 IgV V45C_M114C (ligand)
chain: SQQIYGVVYGNVTFHCPSNVPLKEVLWKKQKDKVAELENSEFRAFSSFKNRVYLDTVSGSLTIYNLTSSDEDEYEMESPNITDTCKFFLYVLESGGGGSHHHHHHHH
notes: Disulfide-stabilized variant
B6: in assay [1], the equilibrium dissociation constant (Kd) was 380 nM and the “n (binding stoichiometry)” value was 0.88.

B7: CD3hi TSP2 (R variant) (other)
heavy: EVQLVQSGAEVKKPGESLKISCKASGYSFTNYWMNWVRQMPGKGLEWMGMIHPSDSEIRLNQKFQGQVTLSVDKSIGTAYMQWSSLKASDTAMYYCSRWYYLSSPMDYWGQGTTVTVSSASTKGPSVFPLAPSSKSTSGGTAALGCLVKDYFPEPVTVSWNSGALTSGVHTFPAVLQSSGLYSLSSVVTVPSSSLGTQTYICNVNHKPSNTKVDKRVEPKSCGGGGSGGGGSEVQLVESGGGLVQPGGSLKLSCAASGFTFNTYAMNWVRQASGKGLEWVGRIRSKYNNYATYYADSVKDRFTISRDDSKSTLYLQMNSLKTEDTAVYYCVRHGNFGNSYVSWFAYWGQGTLVTVSSGGGGSGGGGSGGGGSGGGGSQAVVTQEPSLTVSPGGTVTLTCRSSTGAVTTSNYANWVQQKPGQAPRGLIGGTNKRAPWTPARFSGSLLGDKAALTLSGAQPEDEAEYFCALWYSNLWVFGGGTKLTVLGGGGSDKTHTCPPCPAPELLGGPSVFLFPPKPKDTLMISRTPEVTCVVVAVSHEDPEVKFNWYVDGVEVHNAKTKPREEQYASTYRVVSVLTVLHQDWLNGKEYKCKVSNKALAAPIEKTISKAKGQPREPQVCTLPPSREEMTKNQVSLSCAVKGFYPSDIAVEWESNGQPENNYKTTPPVLDSDGSFFLVSKLTVDKSRWQQGNVFSCSVMHEALHNHYTQKSLSLSPGK
light: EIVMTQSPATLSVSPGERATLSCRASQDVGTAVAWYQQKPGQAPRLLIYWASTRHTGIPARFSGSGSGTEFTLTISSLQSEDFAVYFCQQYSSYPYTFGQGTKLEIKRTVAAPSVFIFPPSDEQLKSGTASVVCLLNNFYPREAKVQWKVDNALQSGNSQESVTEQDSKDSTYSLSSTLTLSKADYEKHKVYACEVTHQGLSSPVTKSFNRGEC
chain: SQQIYGVVYGNVTFHVPSNVPLKEVLWKKQKDKVAELENSEFRAFSSFKNRVYLDTVSGSLTIYNLTSSDEDEYEMESPNITDTMKFFLYVLESGGGGSDKTHTCPPCPAPELLGGPSVFLFPPKPKDTLMISRTPEVTCVVVAVSHEDPEVKFNWYVDGVEVHNAKTKPREEQYASTYRVVSVLTVLHQDWLNGKEYKCKVSNKALAAPIEKTISKAKGQPREPQVYTLPPCREEMTKNQVSLWCLVKGFYPSDIAVEWESNGQPENNYKTTPPVLDSDGSFFLYSKLTVDKSRWQQGNVFSCSVMHEALHNRYTQKSLSLSPGK
notes: also called CD19_NEG218_CD3_16nM-CD58 Trispecific; αCD19(NEG218)-αCD3-CD58IgV
In the case of B7, the binding result in the assay with human CD19 [2] is given as “binds”.

B8: CD3hi TSP1 (R variant) (other)
heavy: QVQLVQSGAEVKKPGASVKVSCKASGYTFTTYWIQWVRQAPGQRLEWMGAVYPGDADTRYTQKFQGRVTLTADRSASTAYMELSSLRSEDTAVYYCGRDAGLEYYALDYWGQGTLVTVSSASTKGPSVFPLAPSSKSTSGGTAALGCLVKDYFPEPVTVSWNSGALTSGVHTFPAVLQSSGLYSLSSVVTVPSSSLGTQTYICNVNHKPSNTKVDKRVEPKSCGGGGSGGGGSEVQLVESGGGLVQPGGSLKLSCAASGFTFNTYAMNWVRQASGKGLEWVGRIRSKYNNYATYYADSVKDRFTISRDDSKSTLYLQMNSLKTEDTAVYYCVRHGNFGNSYVSWFAYWGQGTLVTVSSGGGGSGGGGSGGGGSGGGGSQAVVTQEPSLTVSPGGTVTLTCRSSTGAVTTSNYANWVQQKPGQAPRGLIGGTNKRAPWTPARFSGSLLGDKAALTLSGAQPEDEAEYFCALWYSNLWVFGGGTKLTVLGGGGSDKTHTCPPCPAPELLGGPSVFLFPPKPKDTLMISRTPEVTCVVVAVSHEDPEVKFNWYVDGVEVHNAKTKPREEQYASTYRVVSVLTVLHQDWLNGKEYKCKVSNKALAAPIEKTISKAKGQPREPQVCTLPPSREEMTKNQVSLSCAVKGFYPSDIAVEWESNGQPENNYKTTPPVLDSDGSFFLVSKLTVDKSRWQQGNVFSCSVMHEALHNHYTQKSLSLSPGK
light: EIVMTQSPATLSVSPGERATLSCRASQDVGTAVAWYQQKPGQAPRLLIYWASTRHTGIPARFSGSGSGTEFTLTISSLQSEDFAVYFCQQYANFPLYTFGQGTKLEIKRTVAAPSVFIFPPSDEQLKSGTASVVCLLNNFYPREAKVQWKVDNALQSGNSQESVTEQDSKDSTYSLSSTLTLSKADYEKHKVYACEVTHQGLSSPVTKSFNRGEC
chain: SQQIYGVVYGNVTFHVPSNVPLKEVLWKKQKDKVAELENSEFRAFSSFKNRVYLDTVSGSLTIYNLTSSDEDEYEMESPNITDTMKFFLYVLESGGGGSDKTHTCPPCPAPELLGGPSVFLFPPKPKDTLMISRTPEVTCVVVAVSHEDPEVKFNWYVDGVEVHNAKTKPREEQYASTYRVVSVLTVLHQDWLNGKEYKCKVSNKALAAPIEKTISKAKGQPREPQVYTLPPCREEMTKNQVSLWCLVKGFYPSDIAVEWESNGQPENNYKTTPPVLDSDGSFFLYSKLTVDKSRWQQGNVFSCSVMHEALHNRYTQKSLSLSPGK
notes: also called CD19_NEG258_CD3_16nM-CD58 Trispecific; αCD19(NEG258)-αCD3(16 nM)-αCD58IgV
For B8, the binding result in the assay with human CD19 [3] is “binds”.
